Data reported in US20250222029A1.

Molecular target: HER2 (human epidermal growth factor receptor 2) (human) (UniProt P04626)
Assay: cell-based or functional assay

maximal cytolysis of SKOV3 tumor cells (xCELLigence, E:T 1:1): 90%
Substance: CasMab250 (H/L)-based CAR with medium spacer (IgG4 hinge & CH3 domain) and CD28-CD3ζ1XX intracellular signaling domains
